Measurements reported in US20260201033A1 (LTZ THERAPEUTICS, published 2026).
Read-outs that look alike come from different tables or passages of the source.

How the values were obtained:
[1] = target: T1, mouse CLEC5A (R&D Systems, Cat #: 8438-CL-050) (mouse, UniProt Q9R007 26-190, limits assumed); assay: ELISA, plate coated with mouse CLEC5A
T1 construct: Bought protein; also called recombinant mouse CLEC5A protein
T1 sequence: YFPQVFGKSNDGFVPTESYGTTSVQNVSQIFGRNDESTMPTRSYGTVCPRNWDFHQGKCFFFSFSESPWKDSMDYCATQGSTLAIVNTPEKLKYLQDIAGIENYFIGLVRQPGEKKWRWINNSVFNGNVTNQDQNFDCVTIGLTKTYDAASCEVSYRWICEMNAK

[2] = target: T2, Human C-type lectin domain family 5 member A (CLEC5A), endogenous on human monocytes and M0 macrophages (human, UniProt Q9NY25 1-188); assay: flow cytometry on human M0 macrophages, anti-human IgG PE
T2 construct: Endogenous CLEC5A on primary human monocytes and monocyte-derived M0 macrophages; also called MDL-1; M0 macrophages (CLEC5A+) cells
T2 sequence: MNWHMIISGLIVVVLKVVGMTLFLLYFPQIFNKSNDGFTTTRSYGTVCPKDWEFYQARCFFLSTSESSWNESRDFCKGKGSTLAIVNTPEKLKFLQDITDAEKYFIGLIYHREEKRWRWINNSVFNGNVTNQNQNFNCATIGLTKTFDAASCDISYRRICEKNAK

HER2 on SK-BR-3 cells [3] = target: T3, HER2 on SK-BR-3 cells (UniProt P04626 23-1255, limits assumed); assay: cell-based or functional assay
[4] = target: T2, Human C-type lectin domain family 5 …; assay: flow cytometry on human M0 macrophages, anti-human IgG PE; remark: listed apart in the source
[5] = target: T4, CD79b on Ramos cells and on endogenous B cells of human PBMCs (human, UniProt P40259 29-229); assay: cell-based or functional assay
T4 sequence (looked up): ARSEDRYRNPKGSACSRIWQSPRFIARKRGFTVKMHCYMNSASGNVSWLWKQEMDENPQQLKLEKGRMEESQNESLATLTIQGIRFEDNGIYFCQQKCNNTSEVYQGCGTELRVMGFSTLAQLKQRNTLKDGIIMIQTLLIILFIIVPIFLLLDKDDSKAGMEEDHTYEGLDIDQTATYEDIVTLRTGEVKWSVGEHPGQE

[6] = target: T4, CD79b on Ramos cells and on endogenous …; assay: cell-based or functional assay; remark: listed apart in the source
[7] = target: T4, CD79b on Ramos cells and on endogenous …; assay: cell-based or functional assay; remark: listed apart in the source
[8] = target: T4, CD79b on Ramos cells and on endogenous …; assay: cell-based or functional assay; remark: listed apart in the source
[9] = target: T4, CD79b on Ramos cells and on endogenous …; assay: flow cytometry on Ramos cells (CD79b+), anti-human IgG PE, MFI (PE)
HER2 on SK-BR-3 cells [10] = target: T3, HER2 on SK-BR-3 cells; assay: cell-based or functional assay; remark: listed apart in the source
[11] = target: T4, CD79b on Ramos cells and on endogenous …; assay: cell-based or functional assay; remark: listed apart in the source
[12] = target: T4, CD79b on Ramos cells and on endogenous …; assay: cell-based or functional assay; remark: listed apart in the source
[13] = target: T5, Human CLEC5A His Tag protein (ACROBiosystems, Cat #: CLA-H5243) (human, UniProt Q9NY25 28-188, limits assumed); assay: ELISA, plate coated with human CLEC5A
T5 construct: Bought protein with a His tag; also called recombinant human CLEC5A protein
T5 sequence: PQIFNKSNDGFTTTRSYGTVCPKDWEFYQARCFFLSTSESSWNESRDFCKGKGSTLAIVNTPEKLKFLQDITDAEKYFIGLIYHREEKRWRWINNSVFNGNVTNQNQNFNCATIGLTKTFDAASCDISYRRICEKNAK

[14] = target: T6, human EGFR (ACROBiosystems, Cat #: EGR-H5222) (human, UniProt P00533 25-645); assay: ELISA, plate coated with human EGFR
T6 construct: Bought protein; also called recombinant human EGFR protein

B1: 14A2, chimeric rabbit/human IgG1 anti-CLEC5A antibody (Fc-silenced) (antibody, V domains shown)
VH: QSLEESGGGLVKPEGSLTLTCKASGFTLSSYYYMCWVRQAPGKGLEWIACIYAGSSGTTVYASWAKGRFTISKTSSTTVTLQMTSLTAADTATYLCARKLGDVGYGHTTYFNLWGPGTLVTVSS
VL: ALVMTQTPSSVSAAVGGTVTIKCQASQNIYSTLAWYQQKPGQPPKLLMFDASDLASGVPSRFKGSGSGTEYTLTISDLEPADAATYFCQTYYDSGSDDLNAFGGGTEVVVK
notes: also called ch14A2
EC50 [1]: 0.184 nM | EC50 [2]: 3.99 nM

B2: HER2/3A7 (1+1 A) Fc-silenced (bispecific antibody, human IgG1, kappa, L234A L235A)
heavy 1: not shown
heavy 2: not shown
light 1: not shown
light 2: AVVMTQTPASVEAAVGGTVTINCQASQRINNYLSWFQQKPGQPPKLLIYGAATLASGVPSRFKGSGSGTEYTLTISDLEPADAATYYCQCTYGIPSSNYGFGGGTEVVVKSSASTKGPSVFPLAPSSKSTSGGTAALGCLVKDYFPEPVTVSWNSGALTSGVHTFPAVLQSSGLYSLSSVVTVPSSSLGTQTYICNVNHKPSNTKVDKKVEPKSC
notes: also called HER2/3A7 (1+1 A) Fc-LALAPG
IC50 (nM), SK-BR-3 cell killing by M0 macrophages (E:T 5:1) (HER2 on SK-BR-3 cells [3]): 0.114 nM | EC50 [4]: 0.611 nM

B3: CD79b/5C7 (2+2 A) Fc-optimized (bispecific antibody, human IgG1, kappa)
heavy: EQQLVETGGGLIQPGGSLRLSCAASGFTINIDYWISWVRQAPGKGLEWIGIIDPGDGTTYFAIWVSGRFTISFDNSKNTVYLQMNSLRAEDTAVYFCVREFSASAYQYDLWGPGTLVTVSSASTKGPSVFPLAPSSKSTSGGTAALGCLVKDYFPEPVTVSWNSGALTSGVHTFPAVLQSSGLYSLSSVVTVPSSSLGTQTYICNVNHKPSNTKVDKKVEPKSCDKTHTCPPCPAPELLAGPSVFLFPPKPKDTLMISRTPEVTCVVVDVSHEDPEVKFNWYVDGVEVHNAKTKPREEQYNSTYRVVSVLTVLHQDWLNGKEYKCKVSNKALPLPEEKTISKAKGQPREPQVYTLPPSRDELTKNQVSLTCLVKGFYPSDIAVEWESNGQPENNYKTTPPVLDSDGSFFLYSKLTVDKSRWQQGNVFSCSVMHEALHNHYTQKSLSLSPGK
light: ELVMTQSPATLSVSPGERATLSCRASEDIENYLAWYQQKPGQPPRLLIYRASTLSSGVPARFSGSGSGTEFTLTISSLQSEDFAVYYCQQGYRNSNVDNPFGGGTKVEIKRTVAAPSVFIFPPSDEQLKSGTASVVCLLNNFYPREAKVQWKVDNALQSGNSQESVTEQDSKDSTYSLSSTLTLSKADYEKHKVYACEVTHQGLSSPVTKSFNRGECGGGGSGGGGSGGGGSDIQMTQSPSSLSASVGDRVTITCQASESVDRNNRLAWFQQKPGKPPKLLIYTTSTLASGVPSRFSGSGSGTDFTLTISSLQPEDVATYYCAGYRGAHTDGDAFGCGTKVEIKGGGGSGGGGSGGGGSGGGGSEQQLVESGGGLVKPGGSLRLSCAASGFSFSRSSYMCWVRQAPGKCLEWIGCLSVGDGHTYYASWAKGRFTISKDSAKNSVYLQMNSLRAEDTAVYFCARAPSYSGDGGHGYDLWGPGTLVTVSS
IC50 (nM), Ramos cell killing by PBMCs (test 2), Donor 234 [5]: 0.0675 nM | IC50 (nM), killing of endogenous B cells by PBMCs, Donor 234 [6]: 0.0154 nM | IC50 (nM), Ramos cell killing by M0 macrophages, Donor 100 [7]: 0.002 nM | IC50 (nM), Ramos cell killing by M0 macrophages, Donor 159 [7]: 0.001 nM | IC50 (nM), Ramos cell killing by M0 macrophages, Donor 161 [7]: 0.0013 nM | IC50 (nM), Ramos cell killing by M0 macrophages, Donor 233 [7]: 0.002 nM | IC50 (nM), Ramos cell killing by M2 macrophages, Donor 100 [8]: 0.001 nM | IC50 (nM), Ramos cell killing by M2 macrophages, Donor 233 [8]: 0.003 nM | EC50 (read off the curve) [9]: ~0.9 nM

B4: HER2/5C7 (1+1 A) Fc-silenced (bispecific antibody, human IgG1, kappa, L234A L235A)
heavy 1: not shown
heavy 2: not shown
light 1: not shown
light 2: AIVMTQTPSSKSVPVGDTVTINCQASESVDRNNRLAWFQQKPGQPPKLLIYTTSTLASGVPSRFKGSGSGTHFTLTISDVVPDDAATYYCAGYRGAHTDGDAFGGGTEVVVKSSASTKGPSVFPLAPSSKSTSGGTAALGCLVKDYFPEPVTVSWNSGALTSGVHTFPAVLQSSGLYSLSSVVTVPSSSLGTQTYICNVNHKPSNTKVDKKVEPKSC
notes: also called HER2/5C7 (1+1 A) Fc-LALAPG
IC50 (nM), SK-BR-3 cell killing by M0 macrophages (E:T 5:1) (HER2 on SK-BR-3 cells [3]): 0.148 nM | IC50 (nM), SK-BR-3 cell killing by M0 macrophages in the presence of hIgG1 (HER2 on SK-BR-3 cells [10]): 0.00632 nM | IC50 (nM), SK-BR-3 cell killing by M0 macrophages in the presence of media (HER2 on SK-BR-3 cells [10]): 0.0481 nM | IC50 (nM), SK-BR-3 cell killing by M0 macrophages in the presence of plasma (HER2 on SK-BR-3 cells [10]): 0.433 nM | EC50 [4]: 1.49 nM

B5: CD79b/5C7 (2+2 B) Fc-optimized (bispecific antibody, human IgG1, kappa)
heavy: EQQLVETGGGLIQPGGSLRLSCAASGFTINIDYWISWVRQAPGKGLEWIGIIDPGDGTTYFAIWVSGRFTISFDNSKNTVYLQMNSLRAEDTAVYFCVREFSASAYQYDLWGPGTLVTVSSASTKGPSVFPLAPSSKSTSGGTAALGCLVKDYFPEPVTVSWNSGALTSGVHTFPAVLQSSGLYSLSSVVTVPSSSLGTQTYICNVNHKPSNTKVDKKVEPKSCDKTHTCPPCPAPELLAGPSVFLFPPKPKDTLMISRTPEVTCVVVDVSHEDPEVKFNWYVDGVEVHNAKTKPREEQYNSTYRVVSVLTVLHQDWLNGKEYKCKVSNKALPLPEEKTISKAKGQPREPQVYTLPPSRDELTKNQVSLTCLVKGFYPSDIAVEWESNGQPENNYKTTPPVLDSDGSFFLYSKLTVDKSRWQQGNVFSCSVMHEALHNHYTQKSLSLSPGGGGGSGGGGSGGGGSDIQMTQSPSSLSASVGDRVTITCQASESVDRNNRLAWFQQKPGKPPKLLIYTTSTLASGVPSRFSGSGSGTDFTLTISSLQPEDVATYYCAGYRGAHTDGDAFGCGTKVEIKGGGGSGGGGSGGGGSGGGGSEQQLVESGGGLVKPGGSLRLSCAASGFSFSRSSYMCWVRQAPGKCLEWIGCLSVGDGHTYYASWAKGRFTISKDSAKNSVYLQMNSLRAEDTAVYFCARAPSYSGDGGHGYDLWGPGTLVTVSS
light: ELVMTQSPATLSVSPGERATLSCRASEDIENYLAWYQQKPGQPPRLLIYRASTLSSGVPARFSGSGSGTEFTLTISSLQSEDFAVYYCQQGYRNSNVDNPFGGGTKVEIKRTVAAPSVFIFPPSDEQLKSGTASVVCLLNNFYPREAKVQWKVDNALQSGNSQESVTEQDSKDSTYSLSSTLTLSKADYEKHKVYACEVTHQGLSSPVTKSFNRGEC
IC50 (nM), Ramos cell killing by PBMCs (test 2), Donor 234 [5]: 0.0298 nM | IC50 (nM), Ramos cell killing by PBMCs (test 2), Donor 431 [5]: 0.0168 nM | IC50 (nM), Ramos cell killing by PBMCs (test 3), Donor 281 [11]: 0.28 nM | IC50 (nM), Ramos cell killing by PBMCs (test 3), Donor 367 [11]: 0.0295 nM | IC50 (nM), killing of endogenous B cells by PBMCs, Donor 234 [6]: 0.0156 nM | IC50 (nM), Ramos cell killing by M0 macrophages, Donor 022 [7]: 0.012 nM | IC50 (nM), Ramos cell killing by M0 macrophages, Donor 159 [7]: 0.001 nM | IC50 (nM), Ramos cell killing by M0 macrophages, Donor 161 [7]: 0.001 nM | IC50 (nM), Ramos cell killing by M0 macrophages, Donor 431 [7]: 0.002 nM | IC50 (nM), Ramos cell killing by M1 macrophages, Donor 431 [12]: 0.002 nM | IC50 (nM), Ramos cell killing by M2 macrophages, Donor 022 [8]: 0.006 nM | IC50 (nM), Ramos cell killing by M2 macrophages, Donor 431 [8]: 0.001 nM | EC50 (read off the curve) [9]: ~1 nM

B6: 6A5, chimeric rabbit/human IgG1 anti-CLEC5A antibody (Fc-silenced) (antibody, V domains shown)
VH: QQQLEESGGGLVKPGGTLTLTCTASGFSFSSSYYMCWVRQAPGKGLELIACIYSSSGRTWYATWVNGRFTISRSTSLNTVDLKMTSLTAADTATYFCARSYAGYGGYGYAYFNLWGPGTLVTVSS
VL: DIVMTQTPASVEAGVGGTVTIKCQASEDIYSSLAWYQQKAGQRPKLLIYDASTLASGVPSRFKGSGSGTEYTLTISGVQPDDAATYYCQNYYDSTGSGYGAAFGGGTEVVVK
notes: also called ch6A5
EC50 [1]: 0.12 nM | EC50 [13]: 0.31 nM | EC50 [2]: 9.8 nM

B7: Necitumumab (antibody, V domains shown)
VH: QVQLQESGPGLVKPSQTLSLTCTVSGGSISSGDYYWSWIRQPPGKGLEWIGYIYYSGSTDYNPSLKSRVTMSVDTSKNQFSLKVNSVTAADTAVYYCARVSIFGVGTFDYWGQGTLVTVSS
VL: EIVMTQSPATLSLSPGERATLSCRASQSVSSYLAWYQQKPGQAPRLLIYDASNRATGIPARFSGSGSGTDFTLTISSLEPEDFAVYYCHQYGSTPLTFGGGTKAEIK
EC50 [14]: 0.022 µg/mL
